Assays:
[1] = Fluorogenic substrate microarray: tPA on tPA, thrombin and Xa substrates; type: biochemical; details: aerosol deposition of pure tPA 10 μM
Description: (§1) Well characterized for over 30 years, serine proteases of the coagulation pathway in plasma were selected as a system in which to monitor the delivery of complex enzyme fluids to the microassay. Fluorogenic substrates in DMSO/glycerol were assayed to a glass slide.
(§2) After spray application, thrombin caused a 65-fold increase in fluorescence activity after conversion of the boc-VPR-MCA substrate. […] Aerosol deposition of pure tPA (10 μM) to a sensing array caused significant cleavage of the tPA, thrombin and Xa substrates, resulting in fluorescence that was 18- to 20-fold above background.

[2] = Fluorogenic substrate microarray, aerosol deposition of enzyme: boc-VLK-MCA; type: biochemical; details: pure plasmin 1 μM deposited on the array
[3] = Fluorogenic substrate microarray: plasmin on thrombin and kallikrein substrates; type: biochemical; details: pure plasmin 1 μM
Description: as §1, §2

[4] = tested on: fluorogenic substrates on the array; test: Microarray assay of diluted recalcified citrated plasma with added plasmin; type: biochemical, human
Description: as §1
The microarray detected the modest activation of the coagulation pathway in recalcified diluted plasma due to low level factor Xa and thrombin activity (Butenas, 1997; Rand, 1996). Since corn trypsin inhibitor was not present to inhibit factor XIIa (Rand, 1996), moderate activation of the contact system and kallikrein generation was detected by conversion of the kallikrein substrate.
[…] This plasmin activity was detected by a strong signal in the plasmin substrate spot. […] Plasmin is also a potent activator of factor XU to factor XUa which can in turn convert prekallikrein to kallilkrein.

[5] = Morita, 1977; cited from earlier work

Molecule | fluorescence above background from cleavage of the tPA, thrombin and Xa substrates [1] | signal for the boc-VLK-MCA substrate above background [2] | activity on the thrombin and kallikrein substrates [3] | signal in the plasmin substrate spot ([4]; plasmin 0.43 μM final concentration added to diluted recalcified citrated plasma) | cleavage of substrates on the array ([4]; plasmin 2.14-1 μM final concentration added to plasma) | reported activity on boc-VPR-MCA and Z-FR-MCA [5] | reported activity on tPA and factor Xa substrates [5]
tPA: pure tPA delivered by aerosol deposition to a sensing array (protein, UniProt P00750 36-562, looked up) Tissue-type plasminogen …: SYQVICRDEKTQMIYQQHQSWLRPVLRSNRVEYCWCNSGRAQCHSVPVKSCSEPRCFNGGTCQQALYFSDFVCQCPEGFAGKCCEIDTRATCYEDQGISYRGTWSTAESGAECTNWNSSALAQKPYSGRRPDAIRLGLGNHNYCRNPDRDSKPWCYVFKAGKYSSEFCSTPACSEGNSDCYFGNGSAYRGTHSLTESGASCLPWNSMILIGKVYTAQNPSAQALGLGKHNYCRNPDGDAKPWCHVLKNRRLTWEYCDVPSCSTCGLRQYSQPQFRIKGGLFADIASHPWQAAIFAKHRRSPGERFLCGGILISSCWILSAAHCFQERFPPHHLTVILGRTYRVVPGEEEQKFEVEKYIVHKEFDDDTYDNDIALLQLKSDSSRCAQESSVVRTVCLPPADLQLPDWTECELSGYGKHEALSPFYSERLKEAHVRLYPSSRCTSQHLLNRTVTDNMLCAGDTRSGGPQANLHDACQGDSGGPLVCLNDGRMTLVGIISWGLGCGQKDVPGVYTKVTNYLDWIRDNMRP | 18- to 20 fold | – | – | – | – | – | –
plasmin: pure plasmin, serine protease deposited on the array (protein, UniProt P00747 20-580; P00747 581-810, looked up, plasmin, pure plasmin, serine protease deposited on the array) Plasmin heavy chain A: EPLDDYVNTQGASLFSVTKKQLGAGSIEECAAKCEEDEEFTCRAFQYHSKEQQCVIMAENRKSSIIIRMRDVVLFEKKVYLSECKTGNGKNYRGTMSKTKNGITCQKWSSTSPHRPRFSPATHPSEGLEENYCRNPDNDPQGPWCYTTDPEKRYDYCDILECEEECMHCSGENYDGKISKTMSGLECQAWDSQSPHAHGYIPSKFPNKNLKKNYCRNPDRELRPWCFTTDPNKRWELCDIPRCTTPPPSSGPTYQCLKGTGENYRGNVAVTVSGHTCQHWSAQTPHTHNRTPENFPCKNLDENYCRNPDGKRAPWCHTTNSQVRWEYCKIPSCDSSPVSTEQLAPTAPPELTPVVQDCYHGDGQSYRGTSSTTTTGKKCQSWSSMTPHRHQKTPENYPNAGLTMNYCRNPDADKGPWCFTTDPSVRWEYCNLKKCSGTEASVVAPPPVVLLPDVETPSEEDCMFGNGKGYRGKRATTVTGTPCQDWAAQEPHRHSIFTPETNPRAGLEKNYCRNPDGDVGGPWCYTTNPRKLYDYCDVPQCAAPSFDCGKPQVEPKKCPGR Plasmin light chain B: VVGGCVAHPHSWPWQVSLRTRFGMHFCGGTLISPEWVLTAAHCLEKSPRPSSYKVILGAHQEVNLEPHVQEIEVSRLFLEPTRKDIALLKLSSPAVITDKVIPACLPSPNYVVADRTECFITGWGETQGTFGAGLLKEAQLPVIENKVCNRYEFLNGRVQSTELCAGHLAGGTDSCQGDSGGPLVCFEKDKYILQGVTSWGLGCARPNKPGVYVRVSRFVTWIEGVMRNN | – | 25 fold | detectable activity | strong signal | significant cleavage of each substrate | activity | no detectable activity

— patent US7598033B2, “Method and devices for running reactions on a target plate for MALDI mass spectrometry” (University of Pennsylvania, priority 2003, dated 2009)
